First the molecules themselves.
B1: 8-L17-A (antibody, V domains shown)
VH: EVQLVESGGGLVQPKGSLKLSCAASGFTFNTYAMHWVRQAPGKGLEWVARIRSKSSNYARYYADSVKDRFTISRDDSQSMLYLQMNNLKTEDTAMYYCVRDHDYYGSSYWFAYWGQGTLVTVSA
VL: DVVMTQTPLSLPVSLGDQASISCRSSQSLVHNNGNTYLHWYLQKPGQSPKLLIYKVSNRFSGVPDRFSGSGSGTDFTLKISRVEAEDLGVYFCSQSTHVPWTFGGGTKLEIK
B2: 8-H3-A (antibody, V domains shown)
VH: B1 VH with R60T, A112T
VL: B1 VL with N32D, Y41F, A85T
B3: 4-M3-A (antibody, V domains shown)
VH: EVQLQQSGPELVKPGDSVKISCKASGYSFTGYFMNWVMQSHGKSLEWIGRINPNNGETFYNQKFKGKATLTVDKSSDTAHMELRSLTSEDSAVYYCARGGTGTGWGQGTTLTVSS
VL: DILMTQSPSSMSVSLGDTVSITCHASQGISSNIGWLQQKPGKSFKGLIYYGTNLEDGVPSRFSGSGSGADYSLTISSLESEDLADYYCIQYAQFPYTFGGGTKLEIK
B4: 4-N22-A (antibody, V domains shown)
VH: QVQLQQPGTELVKPGASVKLSCKASGYTFTNYWMYWVKQRPGQGLDWIGNINPSNGGTNYNEKFKSKATLTVDKSSSTAYMQLSSLTSEDSAVYYCARETGNYWGQGTTLTVSS
VL: B3 VL with T22S, Y50H, L83F, I89V
B5: 8-H5-A (antibody, V domains shown)
VH: QVTLKESGPGILQSSQTLSLTCSLSGFSLSTSGMGVSWVRQPSGKGLEWLAHIYWDDDKRYTPSLKSRLTISTDSSRKQVFLKITSVDTADTATYYCARRDLHDYDGWFAYWGQGTLVTVSA
VL: DIVMTQSQKFMSTAVGDRVSVTCKASQNVGTNVAWYQQKPGQSPKALIYSASFRYSGVPDRFSGSGSGTDFTLTISNVQSEDLAEYFCQQYNSYPLTFGSGTKLEIK
B6: 1-L10-A (antibody, V domains shown)
VH: EVKLEESGGGLVQPGGSMKLSCVASGFTFNNYWMNWVRQSPEKGLEWVAQMRLKSDNYATHYAESVKGRFTISRDDSKSSVYLQMNNLRAEDTGIYYCIEGYWTYWGQGTLVTVSA
VL: QIVLTQSPAIMSASLGERVTMTCTASSSVSSSYLHWYQQKPGSSPKLWIYSTSNLASGVPARFSGNGSGTSYSLTISSMEAEDAATYYCLQYHRSPPYTFGGGTKLEIK
B7: 2-G20-A (antibody, V domains shown)
VH: EVQLQQSGPELVKPGASVKMSCKASGYTFPSYVLHWVKQKPGQGLEWIGYIYPYNDGTNYNEKFKGKATLTSDKSSSTAYMELSSLTSEDSAVYYCARGDYGDSAWFPYWGQGTLVTVSA
VL: DIVLTQSPASLAVSLGQRATISCRASKSVSTSGYSYMHWYQQKPGQPPKLLIYLASNLKSGVPARFSGGGSGTDFTLNIHPVEEEDAATYYCQLSRELPWTFGGGTKLEIK
B8: 2-H7-A (antibody, V domains shown)
VH: QAYLQQSGAELVRPGASVKMSCKASGYTFTGYTMHWVKQTPRQGLEWIGAIYPENGDTSYNQKFKGKATLTVDKSSSTAYMQLSSLTSEDSAVYFCARDGYDVLYGMDYWGQGTSVTVSS
VL: B7 VL with K59E, G69S, L94H, E109D
B9: 9-F6-A (antibody, V domains shown)
VH: EVQLQQSGPELVKPGASVKMSCKASGYTFTSYIMHWVKQKPGQGLEWIGYILPYNDGTKYNEKFKGKATLTSDKSSSTAYMELRSLTSEDSAVYYCARWGYSNFLDSWGQGTTLTVSS
VL: DIQMTQTTSSLSASLGDRVTISCRASQDINNYLNWYQQKPDGTVKLLIYYTSRLHSGVPSRFSGSGSGTDYSLTIRNLEQEDIATYFCQQGNTLPPTFGGGTKLEIK
B10: 6-O12-A (antibody, V domains shown)
VH: QVQLQQPGTELVKPGASVKLSCKASGYTFTSYWMHWVKQRPGQGLEWIGNINPSNGGTNYNEKFRSKATLTVDKSSSTAYMQLSSLTSEDSAVYYCARLGWFLPLGSWGQGTTLTVSS
VL: QIVLTQSPAIMSASLGEVITLTCSASSSVSYMHWYQQKSGTSPKLLIYSTSNLASGVPSRFSGSGSGTFYSLTISSVEAEDAADYYCHQWSGYMYTFGGGTKLEIK
B11: 3-E2-A (antibody, V domains shown)
VH: EVQLQQSGPELVKPGASVKISCKASGYTFTDYYMNWVKQSHGKSLEWIGDINPNNGGTSYTQKFKGKATLTVDKSSSKAYMELRSLTSEDSAVYYCARRGDGHYGGFTYWGQGTLVTVSA
VL: not shown
B12: 2-O12-A (antibody, V domains shown)
VH: B11 VH with P53S, S59T, T61D, K74R, K78T, Y104F
VL: not shown
B13: 4-L4-A (antibody, V domains shown)
VH: QAYLQQSGAELVRPGASVKMSCKASGYTFTSYTVHWVKQTPRQGLEWIGGIYPGNVDTSYNQNFKGKATLTVDKSSSTAYMQLSSLTSEDSAVYFCARDGYYAMDYWGQGTSVTVSS
VL: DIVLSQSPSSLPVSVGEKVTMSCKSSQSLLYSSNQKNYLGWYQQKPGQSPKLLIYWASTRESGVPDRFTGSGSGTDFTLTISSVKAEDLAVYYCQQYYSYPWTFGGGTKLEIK
B14: 2-P2-A (antibody, V domains shown)
VH: EVQLQQSGAELVRPGSSVKMSCKTSGYTFTSYGINWVKQRPGQGLEWIGYIYIGNGYTEYNEKFKGKATLTSDTSSSTAYMQLSSLTSEDSAIYFCARGGVDYWGQGTTLTVSS
VL: B1 VL with V3L, L29I, N32S, H39E, F92Y, S94F, S96G, T97S, W101Y
B15: 8-A17-A (antibody, V domains shown)
VH: QVQLKESGPGLVAPSQSLSITCTVSGFSLTSYAISWVRQPPGKGLEWLGVVWPGGGTNYNSALKSRLSINKDNSKSQVFLKMNSLQTDDTGRYYCARTGYHFDYWGQGTTLTVSS
VL: QIVLTQSPAIMSASPGEKVTMTCSVSSSVSYMHWYQQKSGTSPKRWIYDTSKLASGVPARFSGSGSGTSYSLTISSMEAEDAATYYCQQWSSNPPMYTFGGGTKLEIK
B16: 1-B11-A (antibody, V domains shown)
VH: QVQLQQSGPELVKPGASVKISCKASGYTFTDHYINWVKQRPGQGLEWIGWIFPGSGSTYYNEQFKGKATLTVDKSSNTAYMLLSSLTSEDSAVYFCARSGGLRLGFAYWGQGTLVTVSA
VL: B9 VL with N30S, R76S, A84S, G91V, P96Y

Residue numbers refer to the chain shown, from its start.

Drawing on patent publication US20230115257A1 (published 2023), this text covers IC50 for 16 molecules.

In one assay the target is SARS-CoV-2 (WIV02 isolate) prefusion stabilized spike trimer protein (UniProt P0DTC2 14-1213). The experiment in a line: ELISA. Background: ELISA stands for enzyme-linked immunosorbent assay.
The IC50 is the point on the concentration scale where inhibition reaches its midpoint. A high value points to weaker potency. For B1, the IC50 turned out to be 60.8 nM.
Molecule B2 registered an IC50 of 19.4 nM.
B3 came in with an IC50 of 7.36 nM.
For B4, the IC50 was 4.93 nM.
The molecule B5 returned an IC50 of 12.8 nM.
Take B6: the IC50 is 8.65 nM.
On to B7, for which inhibition was half-maximal at 18.3 nM (IC50).
On to B8, for which the IC50 turned out to be 7.21 nM.
In turn, B9 yielded an IC50 of 16.7 nM.
B10 gave an IC50 of 7.62 nM.
B11 registered an IC50 of 18.4 nM.
B12 showed an IC50 of 14.9 nM.
With B13, half-maximal inhibition (IC50) was put at 8.34 nM.

The next assay has as its target SARS-CoV-1 spike protein (SARS-CoV-1, UniProt P59594 14-1195). Nature of the assay: ELISA.
With B14, the IC50 turned out to be 17.9 nM.
B15 yielded an IC50 of 5.1 nM.
B6 showed an IC50 of 7.5 nM.
On the same count and under the same terms, for B7 the value was 6.65 nM; for B16, 20.9 nM.
Take B9: the IC50 was found to be 5.55 nM.
On the same count and under the same terms, for B10 the value was 5.4 nM.
